Measurements reported in PMC11461821, “Structure of a Rhs effector clade domain provides mechanistic insights into type VI secretion system toxin delivery” (Nature Communications, 2024).

T1: Tse15 central Rhs domain (residues 335-1395) (Acinetobacter baumannii (strain …, UniProt A0A5K6CSR3 335-1395))
T1 construct: Tse15, A. baumannii AB307-0294, central Rhs domain, residues 335-1395; also called Rhs cage; β-cocoon
T1 sequence: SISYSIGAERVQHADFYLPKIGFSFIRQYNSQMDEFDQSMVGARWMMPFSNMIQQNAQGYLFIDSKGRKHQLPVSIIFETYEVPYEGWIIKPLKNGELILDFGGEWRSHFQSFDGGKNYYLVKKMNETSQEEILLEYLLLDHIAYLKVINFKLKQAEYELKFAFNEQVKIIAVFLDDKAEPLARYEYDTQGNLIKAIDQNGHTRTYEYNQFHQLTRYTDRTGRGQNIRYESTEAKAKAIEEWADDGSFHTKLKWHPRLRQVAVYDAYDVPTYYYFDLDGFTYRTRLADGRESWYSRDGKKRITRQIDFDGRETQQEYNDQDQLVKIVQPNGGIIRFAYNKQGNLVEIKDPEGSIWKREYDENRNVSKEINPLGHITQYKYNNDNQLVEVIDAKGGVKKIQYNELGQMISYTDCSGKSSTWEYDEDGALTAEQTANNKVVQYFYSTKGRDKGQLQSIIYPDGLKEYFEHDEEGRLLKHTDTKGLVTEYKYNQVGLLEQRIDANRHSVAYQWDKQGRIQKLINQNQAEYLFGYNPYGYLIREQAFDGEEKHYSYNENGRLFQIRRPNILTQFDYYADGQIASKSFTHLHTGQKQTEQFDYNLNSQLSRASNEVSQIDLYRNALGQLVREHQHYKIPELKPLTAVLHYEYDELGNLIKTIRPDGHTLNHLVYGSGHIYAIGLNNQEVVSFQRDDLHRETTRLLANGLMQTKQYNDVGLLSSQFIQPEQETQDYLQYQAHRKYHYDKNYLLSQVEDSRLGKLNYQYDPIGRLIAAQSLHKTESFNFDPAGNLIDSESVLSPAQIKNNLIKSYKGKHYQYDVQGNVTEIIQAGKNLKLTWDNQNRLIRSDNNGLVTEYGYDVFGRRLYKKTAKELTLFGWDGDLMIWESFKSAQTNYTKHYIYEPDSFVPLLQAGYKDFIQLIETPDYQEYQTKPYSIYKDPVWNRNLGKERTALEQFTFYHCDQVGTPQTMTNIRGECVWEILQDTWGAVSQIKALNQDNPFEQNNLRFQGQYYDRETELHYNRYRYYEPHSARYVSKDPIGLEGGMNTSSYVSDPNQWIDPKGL

B1: Tse15 N-terminal clade domain (residues 1-334) (domain or fragment)
chain: MAKENTQQKEIKRQPAVELAVFNLNSVTDVADLQMIASQVQLYLQVCGNTTLEQIKSKANITTVANIFALTGSVLDLMLYATDKKTGDAAVQRGALLAANLIGLFSEPNNEAHARMALRPMFGLMAECLYRENGKIKETDIKRLGLHLNAMIAGDLENFLKETQAKLSSLLISATTLGVTILQSMATPATGINAGITTAAGASAEKRDPKLKFTNWAVPLIDLLGKPSQANLTPKIQPNITSRLQQEATQAIAALSQTLQQQANAGQKYTLAWLLQETLKAIQALENKGNASVPINQTGEYERHTKGDTLEFVSLQADALNAPPCEGADSQSGK
notes: Tse15, A. baumannii AB307-0294, N-terminal clade domain, residues 1-334; Residues 14-333 are modelled in the structure; also called N-terminal clade-specific domain; not shown: StrepTag-II, N-terminal, kept
B2: Tse15 toxic C-terminal domain (residues 1396-1590) (domain or fragment)
chain: NSFNYGEMFGIPASAQSGLAYQGQRNYECYAETGELCKIKVPPLFDYVACSGGGLGIGVGFVKNQWTGEYYISGSKDSLLIPVAKSVAQNKQFSAKDLAGASCVGGNIHNIPSYTKTTMTMGEITNEFVSGASVTVGGGAYGAVANVVVPLVSKSSPVKGTWASELGVGTPGFNVGVSGTVSVDTILDAVKPSKK
notes: Tse15, A. baumannii AB307-0294, toxic CTD, residues 1396-1590; also called CTD; toxin domain; not shown: His6, C-terminal, kept

Experiments:
[1] = biological target: T1, Tse15 central Rhs domain (residues …); test: cryo-EM structure; single particle cryo-EM of purified protein, 3 mg/mL, UltrAuFoil grids; Tse15 at 200 kV (Talos Arctica), Tse15NN at 300 kV (Titan Krios); details: both partners purified
[2] = biological target: B1; test: pull-down + SEC; nickel affinity (HisTrap HP) from E. coli lysate by the His tag that only the CTD carries, then analytical size-exclusion (Superdex200 10/300 GL Increase, 50 mM Hepes pH 8.0, 0.3 M NaCl); fragments identified by SDS-PAGE, Western blot, peptide fingerprinting and N-terminal sequencing; details: partners not purified
[3] = biological target: T1, Tse15 central Rhs domain (residues …); test: as above; details: partners not purified

| Binder | binding result [1] | binding result [2] | binding result [3] |
| --- | --- | --- | --- |
| B1 | binds |  |  |
| B2 |  | binds | binds |
